Source: the supplement of paper PMC7125110
± gives the standard error. This sample holds only a part of the variants without activity.

B1: glmS ribozyme (parent)
chain: AUAAAAGCGCCAGAACUACAGAAAUGUAGUUGACGAGGAGGAGGUUUAUCGAAUUUUCGGCGGAUGCCUCCAAA

Tests used:
Details in all cases: with glucosamine-6-phosphate
[1] = variants of: B1; assay: self-cleavage kobs at 160 uM GlcN6P; higher = faster cleavage; RNA array
How it was run: (§1)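 Using a hybridised Cy3 probe at 37 °C, barcoded ribozyme variants transcribed in situ by E. coli RNA polymerase on sequenced MiSeq chips were monitored across tiles imaged over ~14 h. The flow contained glucosamine-6-phosphate from 40 μM to 10 mM in HEPES/KCl/Mg(OAc)2 buffer. Signals were normalised to baseline and to non-cleaving reference variants before per-tile medians were fit to one- or two-exponential decays to yield kobs. Weighted Michaelis–Menten fits across concentrations gave kcat and KM.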

[2] = variants of: B1; assay: self-cleavage kobs at 640 uM GlcN6P; higher = faster cleavage; RNA array
How it was run: as §1

[3] = variants of: B1; assay: self-cleavage kobs at 10000 uM GlcN6P; higher = faster cleavage; RNA array
How it was run: as §1

[4] = variants of: B1; assay: self-cleavage kobs at 2500 uM GlcN6P; higher = faster cleavage; RNA array
How it was run: as §1

A39G G51U G59U
self-cleavage kobs at 160 uM GlcN6P [1]: < 1e-05 s⁻¹
self-cleavage kobs at 640 uM GlcN6P [2]: < 1e-05 s⁻¹
self-cleavage kobs at 10000 uM GlcN6P [3]: < 1e-05 s⁻¹

U31C U54A C67G
self-cleavage kobs at 160 uM GlcN6P [1]: 3.53e-05 ± 9.2e-06 s⁻¹
self-cleavage kobs at 640 uM GlcN6P [2]: 8.75e-05 ± 2.2e-05 s⁻¹
self-cleavage kobs at 2500 uM GlcN6P [4]: 7.96e-05 ± 1.7e-05 s⁻¹

C34G C50G
self-cleavage kobs at 160 uM GlcN6P [1]: 5.61e-05 ± 2.4e-05 s⁻¹
self-cleavage kobs at 640 uM GlcN6P [2]: 0.00014 ± 5.7e-05 s⁻¹
self-cleavage kobs at 2500 uM GlcN6P [4]: 9.6e-05 ± 3.6e-05 s⁻¹

G41A A48U A64U C71A
self-cleavage kobs at 160 uM GlcN6P [1]: < 1e-05 s⁻¹
self-cleavage kobs at 2500 uM GlcN6P [4]: < 1e-05 s⁻¹

U31G A39C U45A
self-cleavage kobs at 160 uM GlcN6P [1]: 0.000229 ± 6.4e-05 s⁻¹
self-cleavage kobs at 640 uM GlcN6P [2]: 0.000642 ± 0.0001 s⁻¹
self-cleavage kobs at 2500 uM GlcN6P [4]: 0.00161 ± 0.00025 s⁻¹

G35C U47G U55G
self-cleavage kobs at 160 uM GlcN6P [1]: < 1e-05 s⁻¹
self-cleavage kobs at 10000 uM GlcN6P [3]: < 1e-05 s⁻¹

G32U G59C
self-cleavage kobs at 160 uM GlcN6P [1]: < 1e-05 s⁻¹
self-cleavage kobs at 640 uM GlcN6P [2]: < 1e-05 s⁻¹
self-cleavage kobs at 2500 uM GlcN6P [4]: < 1e-05 s⁻¹

A36G U49A
self-cleavage kobs at 160 uM GlcN6P [1]: < 1e-05 s⁻¹
self-cleavage kobs at 640 uM GlcN6P [2]: < 1e-05 s⁻¹
self-cleavage kobs at 2500 uM GlcN6P [4]: < 1e-05 s⁻¹
self-cleavage kobs at 10000 uM GlcN6P [3]: < 1e-05 s⁻¹

G32A A42U
self-cleavage kobs at 160 uM GlcN6P [1]: < 1e-05 s⁻¹
self-cleavage kobs at 640 uM GlcN6P [2]: < 1e-05 s⁻¹

G41C A52C C68U
self-cleavage kobs at 160 uM GlcN6P [1]: < 1e-05 s⁻¹

A42U U55A G60A C71G
self-cleavage kobs at 160 uM GlcN6P [1]: < 1e-05 s⁻¹
self-cleavage kobs at 640 uM GlcN6P [2]: < 1e-05 s⁻¹
self-cleavage kobs at 2500 uM GlcN6P [4]: < 1e-05 s⁻¹

A36C G41U
self-cleavage kobs at 160 uM GlcN6P [1]: < 1e-05 s⁻¹
self-cleavage kobs at 640 uM GlcN6P [2]: < 1e-05 s⁻¹
self-cleavage kobs at 2500 uM GlcN6P [4]: < 1e-05 s⁻¹
self-cleavage kobs at 10000 uM GlcN6P [3]: < 1e-05 s⁻¹

A36C A52C C70U
self-cleavage kobs at 160 uM GlcN6P [1]: < 1e-05 s⁻¹
self-cleavage kobs at 640 uM GlcN6P [2]: < 1e-05 s⁻¹

G41A C67A
self-cleavage kobs at 160 uM GlcN6P [1]: < 1e-05 s⁻¹
self-cleavage kobs at 10000 uM GlcN6P [3]: 4.21e-05 ± 8.7e-06 s⁻¹

G38U G40U A53C C61G A64G C68A
self-cleavage kobs at 160 uM GlcN6P [1]: < 1e-05 s⁻¹
self-cleavage kobs at 640 uM GlcN6P [2]: < 1e-05 s⁻¹

C34A G37U A48G
self-cleavage kobs at 160 uM GlcN6P [1]: < 1e-05 s⁻¹

G37A G38U U65C
self-cleavage kobs at 160 uM GlcN6P [1]: < 1e-05 s⁻¹
self-cleavage kobs at 10000 uM GlcN6P [3]: < 1e-05 s⁻¹

C34G U46A
self-cleavage kobs at 160 uM GlcN6P [1]: < 1e-05 s⁻¹
self-cleavage kobs at 2500 uM GlcN6P [4]: < 1e-05 s⁻¹
self-cleavage kobs at 10000 uM GlcN6P [3]: < 1e-05 s⁻¹

G32C U47A G62C A64G
self-cleavage kobs at 160 uM GlcN6P [1]: < 1e-05 s⁻¹
self-cleavage kobs at 640 uM GlcN6P [2]: < 1e-05 s⁻¹
self-cleavage kobs at 2500 uM GlcN6P [4]: < 1e-05 s⁻¹

G40C G60U C67G
self-cleavage kobs at 160 uM GlcN6P [1]: < 1e-05 s⁻¹
self-cleavage kobs at 640 uM GlcN6P [2]: < 1e-05 s⁻¹
self-cleavage kobs at 2500 uM GlcN6P [4]: < 1e-05 s⁻¹

G35C A53G
self-cleavage kobs at 160 uM GlcN6P [1]: < 1e-05 s⁻¹
self-cleavage kobs at 640 uM GlcN6P [2]: < 1e-05 s⁻¹
self-cleavage kobs at 2500 uM GlcN6P [4]: < 1e-05 s⁻¹
self-cleavage kobs at 10000 uM GlcN6P [3]: < 1e-05 s⁻¹

G43A G44A U47A
self-cleavage kobs at 160 uM GlcN6P [1]: < 1e-05 s⁻¹

A33U G51U C58U
self-cleavage kobs at 160 uM GlcN6P [1]: < 1e-05 s⁻¹

G35U G37C U45C
self-cleavage kobs at 160 uM GlcN6P [1]: < 1e-05 s⁻¹
self-cleavage kobs at 2500 uM GlcN6P [4]: < 1e-05 s⁻¹

A33U C58U
self-cleavage kobs at 160 uM GlcN6P [1]: < 1e-05 s⁻¹
self-cleavage kobs at 640 uM GlcN6P [2]: < 1e-05 s⁻¹

U31C G63A
self-cleavage kobs at 160 uM GlcN6P [1]: < 1e-05 s⁻¹
self-cleavage kobs at 10000 uM GlcN6P [3]: < 1e-05 s⁻¹
